Non-standard residues stand in square brackets, D forms with d. No end group written: not given here. *: point of attachment. Desaminotyrosyl = O=C(CCc1ccc(O)cc1)*; NMeY = CN[C@@H](Cc1ccc(O)cc1)C(=O)O; hArg = N=C(N)NCCCC[C@H](N)C(=O)O; Nle = CCCC[C@H](N)C(=O)O; Orn = NCCC[C@H](N)C(=O)O; Abu = CC[C@H](N)C(=O)O; Aoc = NCCCCCCCC(=O)O; Ava = NCCCCC(=O)O
T1: human GHRH receptor (human pituitary membrane homogenates) (human) (UniProt Q02643)
T1 sequence (looked up): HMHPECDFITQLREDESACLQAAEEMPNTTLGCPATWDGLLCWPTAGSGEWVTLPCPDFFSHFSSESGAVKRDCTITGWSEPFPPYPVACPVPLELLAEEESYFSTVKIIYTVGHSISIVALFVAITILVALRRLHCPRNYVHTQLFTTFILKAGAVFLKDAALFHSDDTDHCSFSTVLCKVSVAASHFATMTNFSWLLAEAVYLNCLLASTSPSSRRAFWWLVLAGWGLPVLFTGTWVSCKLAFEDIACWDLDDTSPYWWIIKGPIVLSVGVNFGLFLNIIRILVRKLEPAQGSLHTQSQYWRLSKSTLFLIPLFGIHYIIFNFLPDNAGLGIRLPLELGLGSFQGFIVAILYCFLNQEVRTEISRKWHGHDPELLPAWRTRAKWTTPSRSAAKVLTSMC

T2: human GHRH receptor (human pituitary membrane homogenates) (human, UniProt Q02643 23-423)
T2 construct: whole, on cells; Native receptor in human pituitary membrane homogenates, not on intact cells; also called hGHRH receptor
T2 sequence (looked up): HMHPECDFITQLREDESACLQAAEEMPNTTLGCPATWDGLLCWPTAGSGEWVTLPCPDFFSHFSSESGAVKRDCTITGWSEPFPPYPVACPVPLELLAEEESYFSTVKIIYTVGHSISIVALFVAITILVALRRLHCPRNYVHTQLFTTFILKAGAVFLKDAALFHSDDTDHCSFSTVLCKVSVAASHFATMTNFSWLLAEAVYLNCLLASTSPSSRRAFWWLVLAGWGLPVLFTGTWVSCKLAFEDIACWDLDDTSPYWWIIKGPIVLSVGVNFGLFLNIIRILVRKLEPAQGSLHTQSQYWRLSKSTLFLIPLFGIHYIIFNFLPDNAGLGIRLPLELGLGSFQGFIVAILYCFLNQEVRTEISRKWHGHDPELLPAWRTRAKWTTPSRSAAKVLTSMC

T3: human GHRH receptor (human pituitary membrane homogenates) (human), Q02643
T3 chain: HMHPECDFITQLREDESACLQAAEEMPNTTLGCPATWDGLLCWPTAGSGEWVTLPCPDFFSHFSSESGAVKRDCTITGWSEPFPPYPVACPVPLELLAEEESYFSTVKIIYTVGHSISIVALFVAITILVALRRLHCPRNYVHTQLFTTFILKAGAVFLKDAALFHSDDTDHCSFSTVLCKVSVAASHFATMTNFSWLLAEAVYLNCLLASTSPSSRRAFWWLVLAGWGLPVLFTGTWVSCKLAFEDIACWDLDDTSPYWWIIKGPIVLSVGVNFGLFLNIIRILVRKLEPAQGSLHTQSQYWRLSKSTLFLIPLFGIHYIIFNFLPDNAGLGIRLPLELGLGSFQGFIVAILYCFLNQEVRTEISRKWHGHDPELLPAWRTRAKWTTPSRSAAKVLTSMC


What was measured:
[1] = biological target: T1, human GHRH receptor (human pituitary membrane homogenates) (human); experiment: radioligand competition vs 125I-JV-1-42 (0.2 nM), human pituitary membranes
[2] = biological target: T2, human GHRH receptor (human pituitary …); experiment: radioligand competition vs [His1,125I-Tyr10,Nle27]hGHRH(1-32)NH2 (0.2 nM), human pituitary membranes
Source text: Normal human pituitaries were purchased from the National Hormone and Peptide Program (A. F. Parlow, Los Angeles, County Harbor—UCLA Medical Center, Torrance, Calif.).

[3] = biological target: T3, human GHRH receptor (human pituitary …); experiment: radioligand competition vs 125I-JV-1-42 (0.2 nM), human pituitary membranes

Row | Binder | Relative affinity (Binding potency) vs GHRH [2] | Relative affinity (Binding potency) vs JI-38 [2] | other results
1 | [Desaminotyrosyl]ADAIFTQSYR[Orn]VL[Abu]QLSAR[Orn]LLQDI[Nle]DR[Ava]-NH2 (peptide, from a related filing, SMILES CCCC[C@H](NC(=O)[C@@H](NC(=O)[C@H](CC(=O)O)NC(=O)[C@H](CCC(N)=O)NC(=O)[C@H](CC(C)C)NC(=O)[C@H](CC(C)C)NC(=O)[C@H](CCCN)NC(=O)[C@H](CCCNC(=N)N)NC(=O)[C@H](C)NC(=O)[C@H](CO)NC(=O)[C@H](CC(C)C)NC(=O)[C@H](CCC(N)=O)NC(=O)[C@H](CC)NC(=O)[C@H](CC(C)C)NC(=O)[C@@H](NC(=O)[C@H](CCCN)NC(=O)[C@H](CCCNC(=N)N)NC(=O)[C@H](Cc1ccc(O)cc1)NC(=O)[C@H](CO)NC(=O)[C@H](CCC(N)=O)NC(=O)[C@@H](NC(=O)[C@H](Cc1ccccc1)NC(=O)[C@@H](NC(=O)[C@H](C)NC(=O)[C@H](CC(=O)O)NC(=O)[C@H](C)NC(=O)CCc1ccc(O)cc1)[C@@H](C)CC)[C@@H](C)O)C(C)C)[C@@H](C)CC)C(=O)N[C@@H](CC(=O)O)C(=O)N[C@@H](CCCNC(=N)N)C(=O)NCCCCC(N)=O) [P-22327 [Dat^1, Gln^8, Orn^12, Abu^15, Orn^21, Nle^27, Asp^28, Apa^30]hGHRH(1-30)NH2] | – | – | Relative affinity (Binding potency) vs JI-38 [1]: 2.18 fold
2 | [Desaminotyrosyl][dA]DAIFTNSYR[Orn]VL[Abu]QLSAR[Orn]LLQDI[Nle]DR[hArg]-NH2 (SMILES CCCC[C@H](NC(=O)[C@@H](NC(=O)[C@H](CC(=O)O)NC(=O)[C@H](CCC(N)=O)NC(=O)[C@H](CC(C)C)NC(=O)[C@H](CC(C)C)NC(=O)[C@H](CCCN)NC(=O)[C@H](CCCNC(=N)N)NC(=O)[C@H](C)NC(=O)[C@H](CO)NC(=O)[C@H](CC(C)C)NC(=O)[C@H](CCC(N)=O)NC(=O)[C@H](CC)NC(=O)[C@H](CC(C)C)NC(=O)[C@@H](NC(=O)[C@H](CCCN)NC(=O)[C@H](CCCNC(=N)N)NC(=O)[C@H](Cc1ccc(O)cc1)NC(=O)[C@H](CO)NC(=O)[C@H](CC(N)=O)NC(=O)[C@@H](NC(=O)[C@H](Cc1ccccc1)NC(=O)[C@@H](NC(=O)[C@H](C)NC(=O)[C@H](CC(=O)O)NC(=O)[C@@H](C)NC(=O)CCc1ccc(O)cc1)[C@@H](C)CC)[C@@H](C)O)C(C)C)[C@@H](C)CC)C(=O)N[C@@H](CC(=O)O)C(=O)N[C@@H](CCCNC(=N)N)C(=O)N[C@@H](CCCCNC(=N)N)C(N)=O, also called Peptide 23252) [P-23252 [Dat^1-D-Ala^2, Orn^12, Abu^15, Orn^21, Nle^27, Asp^28, Har^30]hGHRH(1-30)NH2] | 42.3 fold | 13.9 fold | –
3 | [Desaminotyrosyl][dA]DAIFTASYR[Orn]VL[Abu]QLSAR[Orn]LLQDI[Nle]DR[hArg]-NH2 (SMILES CCCC[C@H](NC(=O)[C@@H](NC(=O)[C@H](CC(=O)O)NC(=O)[C@H](CCC(N)=O)NC(=O)[C@H](CC(C)C)NC(=O)[C@H](CC(C)C)NC(=O)[C@H](CCCN)NC(=O)[C@H](CCCNC(=N)N)NC(=O)[C@H](C)NC(=O)[C@H](CO)NC(=O)[C@H](CC(C)C)NC(=O)[C@H](CCC(N)=O)NC(=O)[C@H](CC)NC(=O)[C@H](CC(C)C)NC(=O)[C@@H](NC(=O)[C@H](CCCN)NC(=O)[C@H](CCCNC(=N)N)NC(=O)[C@H](Cc1ccc(O)cc1)NC(=O)[C@H](CO)NC(=O)[C@H](C)NC(=O)[C@@H](NC(=O)[C@H](Cc1ccccc1)NC(=O)[C@@H](NC(=O)[C@H](C)NC(=O)[C@H](CC(=O)O)NC(=O)[C@@H](C)NC(=O)CCc1ccc(O)cc1)[C@@H](C)CC)[C@@H](C)O)C(C)C)[C@@H](C)CC)C(=O)N[C@@H](CC(=O)O)C(=O)N[C@@H](CCCNC(=N)N)C(=O)N[C@@H](CCCCNC(=N)N)C(N)=O, also called Peptide 23256) [P-23256 [Dat^1, D-Ala^2, Ala^8, Orn^12, Abu^15, Orn^21, Nle^27, Asp^28, Har^30]hGHRH(1-30)NH2] | 148 fold | 48.7 fold | –
4 | [Desaminotyrosyl][dA]DAIFTTSYR[Orn]VL[Abu]QLSAR[Orn]LLQDI[Nle]DR[hArg]-NH2 (SMILES CCCC[C@H](NC(=O)[C@@H](NC(=O)[C@H](CC(=O)O)NC(=O)[C@H](CCC(N)=O)NC(=O)[C@H](CC(C)C)NC(=O)[C@H](CC(C)C)NC(=O)[C@H](CCCN)NC(=O)[C@H](CCCNC(=N)N)NC(=O)[C@H](C)NC(=O)[C@H](CO)NC(=O)[C@H](CC(C)C)NC(=O)[C@H](CCC(N)=O)NC(=O)[C@H](CC)NC(=O)[C@H](CC(C)C)NC(=O)[C@@H](NC(=O)[C@H](CCCN)NC(=O)[C@H](CCCNC(=N)N)NC(=O)[C@H](Cc1ccc(O)cc1)NC(=O)[C@H](CO)NC(=O)[C@@H](NC(=O)[C@@H](NC(=O)[C@H](Cc1ccccc1)NC(=O)[C@@H](NC(=O)[C@H](C)NC(=O)[C@H](CC(=O)O)NC(=O)[C@@H](C)NC(=O)CCc1ccc(O)cc1)[C@@H](C)CC)[C@@H](C)O)[C@@H](C)O)C(C)C)[C@@H](C)CC)C(=O)N[C@@H](CC(=O)O)C(=O)N[C@@H](CCCNC(=N)N)C(=O)N[C@@H](CCCCNC(=N)N)C(N)=O, also called Peptide 23254) [P-23254 [Dat^1, D-Ala^2, Thr^8, Orn^12, Abu^15, Orn^21, Nle^27, Asp^28, Har^30]hGHRH(1-30)NH2] | 84.5 fold | 27.8 fold | –
5 | [Desaminotyrosyl][dA]DAIFTQSYR[Orn]VL[Abu]QLSAR[Orn]LLQDI[Nle]DR[Aoc]-NH2 (SMILES CCCC[C@H](NC(=O)[C@@H](NC(=O)[C@H](CC(=O)O)NC(=O)[C@H](CCC(N)=O)NC(=O)[C@H](CC(C)C)NC(=O)[C@H](CC(C)C)NC(=O)[C@H](CCCN)NC(=O)[C@H](CCCNC(=N)N)NC(=O)[C@H](C)NC(=O)[C@H](CO)NC(=O)[C@H](CC(C)C)NC(=O)[C@H](CCC(N)=O)NC(=O)[C@H](CC)NC(=O)[C@H](CC(C)C)NC(=O)[C@@H](NC(=O)[C@H](CCCN)NC(=O)[C@H](CCCNC(=N)N)NC(=O)[C@H](Cc1ccc(O)cc1)NC(=O)[C@H](CO)NC(=O)[C@H](CCC(N)=O)NC(=O)[C@@H](NC(=O)[C@H](Cc1ccccc1)NC(=O)[C@@H](NC(=O)[C@H](C)NC(=O)[C@H](CC(=O)O)NC(=O)[C@@H](C)NC(=O)CCc1ccc(O)cc1)[C@@H](C)CC)[C@@H](C)O)C(C)C)[C@@H](C)CC)C(=O)N[C@@H](CC(=O)O)C(=O)N[C@@H](CCCNC(=N)N)C(=O)NCCCCCCCC(N)=O, also called Peptide 21304) [P-21304 [Dat^1, D-Ala^2, Gln^8, Orn^12, Abu^15, Orn^21, Nle^27, Asp^28, Amc^30]hGHRH(1-30)NH2] | 74 fold | 24.4 fold | –
6 | [NMeY]ADAIFTQSYR[Orn]VL[Abu]QLSAR[Orn]LLQDI[Nle]DR[Ava]-NH2 (peptide, from a related filing) [P-22325 [N-Me-Tyr^1, Gln^8, Orn^12, Abu^15, Orn^21, Nle^27, Asp^28, Apa^30]hGHRH(1-30)NH2] | – | – | Relative affinity (Binding potency) vs JI-38 [1]: 1.14 fold
7 | [Desaminotyrosyl]ADAIFTQSYH[Orn]VL[Abu]QLSAH[Orn]LLQDI[Nle]DR-NHMe (SMILES CCCC[C@H](NC(=O)[C@@H](NC(=O)[C@H](CC(=O)O)NC(=O)[C@H](CCC(N)=O)NC(=O)[C@H](CC(C)C)NC(=O)[C@H](CC(C)C)NC(=O)[C@H](CCCN)NC(=O)[C@H](Cc1c[nH]cn1)NC(=O)[C@H](C)NC(=O)[C@H](CO)NC(=O)[C@H](CC(C)C)NC(=O)[C@H](CCC(N)=O)NC(=O)[C@H](CC)NC(=O)[C@H](CC(C)C)NC(=O)[C@@H](NC(=O)[C@H](CCCN)NC(=O)[C@H](Cc1c[nH]cn1)NC(=O)[C@H](Cc1ccc(O)cc1)NC(=O)[C@H](CO)NC(=O)[C@H](CCC(N)=O)NC(=O)[C@@H](NC(=O)[C@H](Cc1ccccc1)NC(=O)[C@@H](NC(=O)[C@H](C)NC(=O)[C@H](CC(=O)O)NC(=O)[C@H](C)NC(=O)CCc1ccc(O)cc1)[C@@H](C)CC)[C@@H](C)O)C(C)C)[C@@H](C)CC)C(=O)N[C@@H](CC(=O)O)C(=O)N[C@@H](CCCNC(=N)N)C(=O)NC) [P-27413 [Dat^1, Gln^8, His^11, Orn^12, Abu^15, His^20, Orn^21, Nle^27, Asp^28]hGHRH(1-29)NH-CH3] | – | – | IC50 [3]: 2.45 nM; Relative affinity (Binding potency) vs JI-38 [3]: 1.78 fold

— US20140193378A1 (UNIVERSITY OF MIAMI, published 2014)
